Drawing on PMC4585835, “A novel stearic acid-modified hirudin peptidomimetic with improved pharmacokinetic properties and anticoagulant activity” (Scientific Reports, 2015), this text covers Ki for 1 substance.

This experiment concerns the target Rat thrombin (rat). The experiment is described as follows: enzyme inhibition kinetics (thrombin-catalysed hydrolysis of Chromozym TH).

For Hirulog-1 (peptide), the inhibition constant Ki amounted to 20.5 nM.
